Source: patent US20240294661A1 (Genmab, published 2024)

Experiments:
[1] = biological target: T1, membrane-bound tissue factor (TF) on cells (human, UniProt P13726 33-295); assay: cell-based or functional assay
[2] = biological target: T2, TFECDHis (extracellular domain of tissue factor, amino acid 1-251, with C-terminal His tag) (human, UniProt P13726 33-251); assay: ELISA, coated TFECDHis
T2 construct: range 1-251; The stated range 1-251 starts at residue 1 of the precursor; also called recombinant extracellular domain of TF
Procedure: Binding of the anti-TF ADCs to TF was measured by ELISA (coated recombinant extracellular domain of TF) and compared with binding of unconjugated anti-TF HuMabs. […] ELISA plates were washed three times with PBS containing 0.05% Tween-20 (PBST), blocked with 200 µL/well PBST at RT for 1 h while shaking (300 rpm), washed three times with PBST and emptied. Subsequently, 100 μl anti-TF ADCs or unconjugated anti-TF HuMabs were added in serial dilutions in PBST and incubated while shaking at RT for 90 min. ELISA plates were washed three times with PBST and emptied. […] Plates were washed three times with PBST, emptied and incubated with 100 μL ABTS solution (50 ml ABTS buffer [Roche] and one ABTS tablet [50 mg; Roche]). After incubation in the dark at RT for 30 min, the reaction was stopped by incubation with 100 μL per well oxalic acid (2% [w/v]; Riedel de Haen) in the dark, for 10 min. Plates were measured at OD 405 nm in an ELISA reader (Biotek Instruments, EL808 Absorbance Microplate Reader).
Binding curves were analyzed by non-linear regression (sigmoidal dose-response with variable slope) using GraphPad Prism 5 software (GraphPad Software, San Diego, CA, USA).

[3] = biological target: T1, membrane-bound tissue factor (TF) on …; assay: cell-based or functional assay; remark: listed apart in the source
[4] = biological target: T1, membrane-bound tissue factor (TF) on …; assay: FACS, inhibition of binding of 100 nM FVIIa to TF on MDA-MB-231 cells; one representative experiment
Procedure: MDA-MB-231 cells were washed in PBS to remove serum and plated in 96-well plates (100,000 cells per well). […] Cells were washed with FACS buffer and mean fluorescence intensity (MFI) was measured on a FACSCanto II (Becton Dickinson).

[5] = biological target: T2, TFECDHis (extracellular domain of …); assay: ELISA, coated TFECDHis; lower end of the group's range, tied to 011 unconjugated by Table 7 (373)

Row | Binder | % kill, A431 cells, anti-kappa-ETA' assay [1] | % kill, BxPC3 cells, anti-kappa-ETA' assay [1] | % kill, MDA-MB-231 cells, anti-kappa-ETA' assay [1] | EC50 of cell killing, A431 cells, anti-kappa-ETA' assay [1] | EC50 of cell killing, BxPC3 cells, anti-kappa-ETA' assay [1] | EC50 [2] | EC50 of cell killing, MDA-MB-231 cells, anti-kappa-ETA' assay [1] | % kill at 10 µg/mL, A431 cells, ADC killing assay [3] | % kill at 10 µg/mL, HPAF-II cells, ADC killing assay [3] | % kill at 10 µg/mL, NCI-H441 cells, ADC killing assay [3] | IC50 of cell killing, A431 cells, ADC killing assay [3] | IC50 of cell killing, HPAF-II cells, ADC killing assay [3] | IC50 of cell killing, NCI-H441 cells, ADC killing assay [3] | IC50 [4] | EC50 [5]
1 | HuMab-TF-044 (antibody, V domains shown) VH: QVQLVESGGGVVQPGRSLRLSCAASGFTFSDYAMHWVRQAPGKGLEWVAVIPYDGDNKYYADSVKGRFTISRDNSKNTLYLQMNSLRAEDTAVYYCAREDWGLEVDYWGQGALVTVSS VL: AIQLTQSPSSLSASVGDRVTITCRASQGINSALAWYQQKPGKAPKLLIYDASSLESGVPSRFSGSGSGTDFTLTISSLQPEDFATYYCQQFNSYPLTFGGGTKVEIK | 66% | 96% | 44% | 98 ng/mL | 15 ng/mL | – | – | – | – | – | – | – | – | – | –
2 | Anti-TF HuMab 111 (antibody, IgG1, V domains shown, full length, fully human monoclonal IgG1,kappa) VH: QVQLVESGGGVVQPGRSLRLSCAGSGFTFNRYAMYWVRQAPGKGLDWVAVISNDGINKYYADSVKGRFTISRDNSKNTLYLQMNSLRAEDTAVYYCARDHTMVRGAFDYWGQGTLVTVSS VL: EIVLTQSPATLSLSPGERATLSCRASQSVSSYLAWYQQKPGQAPRLLIYDASNRATGIPARFSGSGSGTDFTLTISSLEPEDFAVYYCQQRSNWPLTFGGGTKVEIK | 92% | 98% | 88% | 34 ng/mL | 15 ng/mL | 377 ng/mL | 23 ng/mL | – | – | – | – | – | – | – | –
3 | HuMab-TF-111-vcMMAE (antibody, IgG1, V domains shown, vcMMAE drug-linker alkylated to cysteines of the reduced antibody (positions not given), DAR 4.3 by RP-HPLC, 4.1 by HIC) VH: QVQLVESGGGVVQPGRSLRLSCAGSGFTFNRYAMYWVRQAPGKGLDWVAVISNDGINKYYADSVKGRFTISRDNSKNTLYLQMNSLRAEDTAVYYCARDHTMVRGAFDYWGQGTLVTVSS VL: EIVLTQSPATLSLSPGERATLSCRASQSVSSYLAWYQQKPGQAPRLLIYDASNRATGIPARFSGSGSGTDFTLTISSLEPEDFAVYYCQQRSNWPLTFGGGTKVEIK | – | – | – | – | – | 464 ng/mL | – | 90% | 73% | 51% | 46 ng/mL | 4 ng/mL | 416 ng/mL | – | –
4 | HuMab-TF-111-mcMMAF (antibody, IgG1, V domains shown, mcMMAF drug-linker alkylated to cysteines of the reduced antibody (positions not given), DAR 4.1 by RP-HPLC, 4.2 by HIC) VH: QVQLVESGGGVVQPGRSLRLSCAGSGFTFNRYAMYWVRQAPGKGLDWVAVISNDGINKYYADSVKGRFTISRDNSKNTLYLQMNSLRAEDTAVYYCARDHTMVRGAFDYWGQGTLVTVSS VL: EIVLTQSPATLSLSPGERATLSCRASQSVSSYLAWYQQKPGQAPRLLIYDASNRATGIPARFSGSGSGTDFTLTISSLEPEDFAVYYCQQRSNWPLTFGGGTKVEIK | – | – | – | – | – | 416 ng/mL | – | 73% | 74% | 62% | 83 ng/mL | 15 ng/mL | 416 ng/mL | – | –
5 | Anti-TF HuMab 098 (antibody, IgG1, V domains shown, full length, fully human monoclonal IgG1,kappa; also called HuMab-TF-098) VH: QVQLVQSGAEVRKPGSSVKVSCKASGGSFNNYPIFWVRQAPGQGFEWMGRIIPILGITAYAQKFQGRVTITADKSTSTAYMELNSLRSEDTAVYYCAGGDDLDAFDIWGQGTMVSVSS VL: DIQMTQSPSSLSASVGDRVTITCRASQGISSWLAWYQQKPEKAPKSLIYAASSLQSGVPSRFSGSGSGTDFTLTISSLQPEDFATYYCQQYNSYPYTFGQGTKLEIK | 95% | 99% | 96% | 0.09 ng/mL | 0.013 ng/mL | 422 ng/mL | 0.72 ng/mL | – | – | – | – | – | – | 1220 ng/mL | –
6 | Anti-TF HuMab 011 (antibody, IgG1, V domains shown, full length, fully human monoclonal IgG1,kappa; also called HuMab-TF-011) VH: EVQLLESGGGLVQPGGSLRLSCAASGFTFSNYAMSWVRQAPGKGLEWVSSISGSGDYTYYTDSVKGRFTISRDNSKNTLYLQMNSLRAEDTAVYYCARSPWGYYLDSWGQGTLVTVSS VL: DIQMTQSPPSLSASAGDRVTITCRASQGISSRLAWYQQKPEKAPKSLIYAASSLQSGVPSRFSGSGSGTDFTLTISSLQPEDFATYYCQQYNSYPYTFGQGTKLEIK | 96% | 98% | 88% | 0.39 ng/mL | 0.26 ng/mL | 373 ng/mL | 3 ng/mL | – | – | – | – | – | – | 647 ng/mL | 370 ng/mL
7 | HuMab-TF-013 (antibody, V domains shown) VH: EVQLVQSGAEVKKPGESLKISCKGSGYSFTSYWIGWVRQMPGKGLEWMGIIYPGDSDTRYSPSFQGQVTISADKSISTAYLQWSSLKASDTAMYYCARIHRGAGYSSSWPGAFDIWGQGTMVTVSS VL: DIQMTQSPSSLSASVGDRVTITCRASQGISRWLAWYQQKPEKAPKSLIYAASSLQSGVPSRFSGSGSGTDFTLTISSLQPEDFATYYCQQYDSDPITFGQGTRLEIK | 80% | 96% | 56% | 20 ng/mL | 9.4 ng/mL | – | – | – | – | – | – | – | – | – | –
8 | HuMab-TF-098-mcMMAF (antibody, IgG1, V domains shown, mcMMAF drug-linker alkylated to cysteines of the reduced antibody (positions not given), DAR 4.0 by RP-HPLC, 3.9 by HIC) VH: QVQLVQSGAEVRKPGSSVKVSCKASGGSFNNYPIFWVRQAPGQGFEWMGRIIPILGITAYAQKFQGRVTITADKSTSTAYMELNSLRSEDTAVYYCAGGDDLDAFDIWGQGTMVSVSS VL: DIQMTQSPSSLSASVGDRVTITCRASQGISSWLAWYQQKPEKAPKSLIYAASSLQSGVPSRFSGSGSGTDFTLTISSLQPEDFATYYCQQYNSYPYTFGQGTKLEIK | – | – | – | – | – | 401 ng/mL | – | 85% | 73% | 63% | 13 ng/mL | 5 ng/mL | 4 ng/mL | – | –
9 | HuMab-TF-011-mcMMAF (antibody, IgG1, V domains shown, mcMMAF drug-linker alkylated to cysteines of the reduced antibody (positions not given), DAR 3.9 by RP-HPLC, 4.1 by HIC) VH: EVQLLESGGGLVQPGGSLRLSCAASGFTFSNYAMSWVRQAPGKGLEWVSSISGSGDYTYYTDSVKGRFTISRDNSKNTLYLQMNSLRAEDTAVYYCARSPWGYYLDSWGQGTLVTVSS VL: DIQMTQSPPSLSASAGDRVTITCRASQGISSRLAWYQQKPEKAPKSLIYAASSLQSGVPSRFSGSGSGTDFTLTISSLQPEDFATYYCQQYNSYPYTFGQGTKLEIK | – | – | – | – | – | 431 ng/mL | – | 78% | 72% | 53% | 22 ng/mL | 5 ng/mL | 5 ng/mL | – | –
10 | HuMab-TF-098-vcMMAE (antibody, IgG1, V domains shown, vcMMAE drug-linker alkylated to cysteines of the reduced antibody (positions not given), DAR 3.9 by RP-HPLC, 3.7 by HIC) VH: QVQLVQSGAEVRKPGSSVKVSCKASGGSFNNYPIFWVRQAPGQGFEWMGRIIPILGITAYAQKFQGRVTITADKSTSTAYMELNSLRSEDTAVYYCAGGDDLDAFDIWGQGTMVSVSS VL: DIQMTQSPSSLSASVGDRVTITCRASQGISSWLAWYQQKPEKAPKSLIYAASSLQSGVPSRFSGSGSGTDFTLTISSLQPEDFATYYCQQYNSYPYTFGQGTKLEIK | – | – | – | – | – | 426 ng/mL | – | 92% | 71% | 60% | 9 ng/mL | 1 ng/mL | 10 ng/mL | – | –
